Legend:
Assay type in all cases: biochemical
[1] = Enantioselectivity, GC analysis of hydrolysis of acetic acid esters
Description: To assay the activity of the enzymes on a range of acetic acid esters gas chromatography was used. The samples were analyzed for the production of chiral alcohols by the gas chromatograph GC-17A (Shimadzu, Duisburg, Germany) equipped with FID detector and CP-Chirasil-DEX CB (Chrompack (Middelburg, Netherlands), 25 m×0.25 mm ID) at a helium flow of 1.3 ml/min. The temperature programme included: 5 min at 60° C., followed by an increase of 5° C. per min until 190° C. was reached. For the GC analysis, activity-tests were run in 1 M Tris buffered solutions and using 10 mM substrates dissolved in DMSO as 0.1 M stock solutions. 2 μg of the enzyme were added and tests incubated over night before the corresponding alcohols could be extracted by treatment with acetic acid ethyl ester and analyzed by GC.

[2] = Enzyme activity with pNP-acylesters of different chain length; conditions: substrate pNP-caproate (C6); 4 mM, 45° C., pH 7.2
Description: Enzyme activity tests were performed by incubating the enzyme with 4 mM substrate at 45° C. in 100 mM Tris-HCl buffer at pH 7.2, unless otherwise indicated. The reaction was measured at 410 nm. One unit is defined as the amount of enzyme catalyzing the appearance of 1 μmol of free p-nitrophenol/min. Enzyme activity against pNP-acylesters (butyrate, valerate, caproate, octanoate, decanoate and palmitate) was tested under the above conditions. […] The enzyme according to SEQ ID NO: 6 converted pNP-caproate with a specific activity of 80.0 U/mg.

[3] = Titration assay with triglycerides; conditions: 10 mM, 37° C., pH 7.0
Description: (§1) Enzyme activities on the substrates triacetin, tripropionin, tributyrin, tricaprylene, trilaurin and vinyl-substrates (vinyl-acetate, ˜propionate, ˜butyrate, ˜caproate, ˜caprylate and ˜laurate) were determined using a standard titration assay with minor modifications. Tests were performed with a Methrom 718 STAT potentiometric titrator (Herisau, Switzerland) and by using 10 mM NaOH for titration. The substrates at 10 mM concentration were emulsified in 20 ml reaction buffer containing 2 mM Tris/HCl pH 7.0. After addition of 7.5 μg of the purified enzyme the NaOH consumption was recorded at a reaction temperature of 37° C. One unit was defined as the amount of enzyme that released […] of fatty acid per min.

[4] = Titration assay with vinyl acid esters; conditions: 10 mM, 37° C., pH 7.0
Description: as §1

[5] = substrate cis-3,5-diacetoxy-1-cyclopenten
[6] = substrate cis-3,5-diacetoxy-1-cyclopenten, conversion for the preferred enantiomer
[7] = substrate Acetic acid ester of tetrahydronaphthylamin
[8] = substrate acetic acid ester of (+/−)-1-octin-3-ol, 10 mM, over night
[9] = substrate acetic acid ester of phenylethylamin
[10] = substrate isopropylidenglycerolacetate (rac.), values marked ^1: substrate conversion after 12 h

B1: EstCL2: recombinant enzyme having carboxyl esterase activity, amino acid sequence SEQ ID NO: 8, family V of bacterial lipolytic enzymes (protein)
chain: MKRKTIFSRLSFAALGLFAVATIALDAKAATTCPAGAICRYEEAPGSYSGNGPYTVRSYTLSRLQTPGGATVYYPSNARPPFSGVVFTPPYTGIQSMFAAWGPFFASHGIVMVTMDTNTTLDTVDQRASQQKQVLDALKRENTRSASALYGKLNTARLGAVGWSMGGGATWINSAEYAGLKSAMSLAGHNLTTVDIDSRGGNTRIPTLILNGALDLTYLGGLGQSDGVYNNIRSGVPKVFYEVSSAGHFAWGSPTSANRAVAGIALAFHKTFLDGDTRWVSYIKRPSSDVSKWATASLPQ
modifications: metagenomic sequence
- conversion % of 2.e [1, 5]: 0%
- conversion % of 1.e [1, 6]: 100%
- ee % ([1]; substrate cis-3,5-diacetoxy-1-cyclopenten, listed as EstCl2): 76.3%
- ee % ([1]; substrate cis-3,5-diacetoxy-1-cyclopenten, listed as SEQ ID NO: 8): 76%

B2: EstCL1: recombinant enzyme having carboxyl esterase activity, amino acid sequence SEQ ID NO: 6, family IV of bacterial lipolytic enzymes (protein)
chain: MTDPYVRPDVAMFLAFLNNAPGPKLHELSAPEARMVQNAMRDMADAPVGELAVMRDLEIPGPAGTIMARLYDKQPGRGSGPAMVFFHGGGFVIGNIHTYEPFCAEVARLLDLPVISVEYRLGPESPFPAAFEDCEAAARWVASKPEALGFDVSGLILSGDSAGGNLTISTSMALRDVAAGVPVIAQMPIYPVVTLDPDWPSMRDFADGYLLTAELIQWFGDGHGASGEDYRTHPLDFDQSGMPPTVITTASLDPLRDQGMAYFEKLKAAGVRAEHISAEGNIHGHINVRKGIPSSQQDVEGYVTALTAMLAGVMAEA
modifications: metagenomic sequence
- specific activity [2]: 80.0 U/mg
- specific activity ([3]; substrate triacetin (C2)): 120 U/mg
- specific activity ([3]; substrate tributyrin (C4)): 330 U/mg
- specific activity ([3]; substrate tricaprylin (C8)): 0 U/mg
- specific activity ([3]; substrate trilaurin (C12)): 0 U/mg
- specific activity ([3]; substrate tripropionin (C3)): 200 U/mg
- specific activity ([4]; substrate vinyl acetate (C2)): 0 U/mg
- specific activity ([4]; substrate vinyl butyrate (C4)): 550 U/mg
- specific activity ([4]; substrate vinyl caprylate (C8)): 80 U/mg
- specific activity ([4]; substrate vinyl laurinate (C12)): 0 U/mg
- specific activity ([4]; substrate vinyl propionate (C3)): 173 U/mg
- conversion % of 1.e [1, 7]: 0%
- conversion % of 2.e [1, 7]: 0%
- conversion % of 1.e [1, 8]: 0%
- conversion % of 2.e [1, 8]: 0%
- conversion % of 1.e [1, 9]: 0%
- conversion % of 2.e [1, 9]: 0%
- conversion % of 2.e [1, 5]: 0%
- ee % [1, 5]: 100%
- conversion % of 1.e [1, 6]: 100%
- ee % ([1]; substrate isopropylidenglycerolacetate (rac.)): 100%
- conversion % of 1.e [1, 10]: 0%
- conversion % of 2.e [1, 10]: 35%
- conversion % of 1.e ([1]; substrate menthylacetate, 1. enantiomer (+)): 0%
- conversion % of 2.e ([1]; substrate menthylacetate, 2.e. (−)): 0%

Reference: patent US8956838B2, “Carboxyl esterase polypeptides” (B.R.A.I.N., priority 2006, dated 2015)
